According to patent US20200223906A1 (Adimab, published 2020):

Legend:
[1] = target: RSV F protein of subtype A (strain A2) on recombinant mKate-RSV virus (Respiratory syncytial virus subtype A …, UniProt P03420 26-574); experiment: cell-based or functional assay
[2] = target: RSV F protein of subtype B (18537) on recombinant mKate-RSV virus (Respiratory syncytial virus subtype B …, UniProt P13843 26-574); experiment: cell-based or functional assay
[3] = target: T1, RSV F subtype B, furin-cleaved ectodomain stabilized in the postfusion conformation (F ΔFP) (Respiratory syncytial virus subtype B); experiment: BLI, IgG on AHQ sensor, 100 nM antigen
T1 construct: extracellular domain; Trimeric soluble antigen; also called Postfusion subtype B

[4] = target: T2, RSV F subtype B, furin-cleaved ectodomain stabilized in the prefusion conformation (DS-Cav1) (Respiratory syncytial virus subtype B); experiment: BLI, IgG on AHQ sensor, 100 nM antigen
T2 construct: extracellular domain; Trimeric soluble antigen; also called Prefusion subtype B

[5] = target: T3, RSV F subtype A, furin-cleaved ectodomain stabilized in the postfusion conformation (F ΔFP) (Respiratory syncytial virus subtype A, UniProt P03420 26-109; P03420 147-524); experiment: BLI, IgG on AHQ sensor, 100 nM antigen
T3 construct: extracellular domain; Trimeric soluble antigen; also called Postfusion subtype A

Binder	Neut IC50 (µg/ml) subtype A [1]	Neut IC50 (µg/ml) subtype B [2]	Kd [3]	Kd [4]	Kd [5]
ADI-18950 (antibody, V domains shown, full-length IgG from yeast) VH: EVQLVESGPRLVRPSETLSLTCTVSGGFIKTSSYYWGWIRQPPGKGLEWIGSIYYAGTTYYNPSLQSRVTMSVDTSNNQFSLKLNSVTAADTAVYYCATAWTFDHWGQGTLVTVSS VL: EIVLTQSPATLSLSPGERATLSCRASQSLSNYLAWYQQKPGQAPRLLIYDASNRATGIPARFSGSGSGTDFTLTISSLEPEDFAVYYCQLRGHWPPTITFGQGTRLEIK	> 10 µg/mL	> 10 µg/mL	385 pM	4180 pM	–
ADI-18973 (antibody, V domains shown, full-length IgG from yeast) VH: QVQLVQSGPALVKPTQTLTLTCTFGGFSLSRHGMRVTWIRQAPGKALEWLGHIDWDDDKFYRTSLKTRLTISKDPSNNEVVLKMTNMDHVDTATYYCALMRPFWSRDDYYYSIAVWGKGTTVTVSS VL: DIVLTQSPGTLSLSPGDRATLSCRASQSVGSGYVTWYQQKPGQAPRLLIYGASNRAEGIPDRFSGSGSGTDFTLTISGLESEDFVIYYCQLYHRSPGSASQTVWTFGQGTKVEIK	9.61 µg/mL	6.27 µg/mL	394 pM	2630 pM	–
ADI-18976 (antibody, V domains shown, full-length IgG from yeast) VH: EVQLVETGPGLVKPSETLSLTCTVSGDSISGYYWSWIRQSPGKGLEWIGYIYYRGSTDYNPSLKSRVTISVDTSKNQFSLKLSSVTAADTAVYYCARDNKHHDSGNYYAYFDHWGQGTLVTVSS VL: DIVMTQSPSSLSASVGDRVTITCRASQNINTFLNWYQHKPGKAPKLLIYGASRLQSGVPSRFTGSGSGTDFTLTISSLQPEDFATYSCQQSYTTRLTFGGGTKVEIK	6.29 µg/mL	10.6 µg/mL	209 pM	1240 pM	–
ADI-18941 (antibody, V domains shown, full-length IgG from yeast) VH: EVQLVESAAEVKKPGESLKISCKGSGYSFASHWIGWVRQMPGKGLELMGFIYPGDSDTRYNPSFQGQVTISADKSISTAYLQWTRLKASDTAMYYCGQAVAGGEYFHHWGQGTLVTVSS VL: DIVMTQSPATLSVSPGERATLSCRASQSLGSDLAWYQQKPGQTPRLLIYDASTRATGIPARFSGSGSGTEFTLTISSLQSEDFAVYYCQHYNNWPRGFGQGTKVEIK	> 10 µg/mL	> 10 µg/mL	645 pM	–	19100 pM
ADI-18911 (antibody, V domains shown, full-length IgG from yeast) VH: QVQLVESGAEARKPGESLKISCKASGYSFTNYWIGWVRQMPGKGLEWMGVIYPADSDTRYSPSFKGQVTISADKSISTAYLQWTRLKASDTAVYFCARLGIGAAARNYWGQGTLVTVSS VL: DIQVTQSPSSLSASVGDRVTITCQASQDISDSLNWYQQKPGKAPNLLIYDASKSETGVPSRFSGSGSGTDFTFTISSLQPEDLATYYCLQFDNLPPTFGQGTRLEIK	0.301 µg/mL	4.85 µg/mL	280 pM	–	353 pM
ADI-18885 (antibody, V domains shown, full-length IgG from yeast; also called Antibody Number 241; Ab # 241) VH: EVQLQESGPGLVKPLQTLSVTCSVSGGSISSGDNYWSWIRQRPGKGLEWIGYIYYSGTTYYNPSLKSRVTISADRSKNQFSLKMNSLSAADTAVYYCARDGGYDHIWGTHRYFALWGQGTLVTVSS VL: ETTLTQSPGTLSLSPGERATLSCRASQSVNSDYLAWYQQKLGQAPRLLIYGVSNRATGIPDRFTGSGSGTDFTLTISRLEPEDFAVYHCQQYGTSPWTFGQGTKVEIK	0.376 µg/mL	8.63 µg/mL	307 pM	3890 pM	–
ADI-18887 (antibody, V domains shown, full-length IgG from yeast; also called Antibody Number 242; Ab # 242) VH: QVQLVQSGAEVKRPGSSVKVSCKASGGTFSSYALSWVRQAPGQGLEWIGGIIPMHRVTNYAQKFRGRVTISADTSTSTAYLEVNSLRVEDTAMYYCARVFFGTCGGASCFPSDLWGQGTLVTVSS VL: EIVLTQSPSFVSASVGDGVTITCRASQAISSYLAWYQQKPGQAPKLLIYAASTLQGGVPSRFSGSGSGTHFTLTISSLQPEDFATYYCQQLHSDFQTFGPGTKVEIK	1.11 µg/mL	> 10 µg/mL	549 pM	12200 pM	–
ADI-18909 (antibody, V domains shown, full-length IgG from yeast; also called Antibody Number 264; Ab # 264) VH: QVQLQESGPGLVKPSQTLSLTCTVSGRFLNSGDYYWSWIRQSPGKGLEWLGYIHHSGNTYYNPSLKSRLTISLDMSKNQFSLKLSSVTAADTAVYYCARDLGKPLWDGHYYYGVDVWGQGTTVTVSS VL: DIVMTQSPGTLSLSPGERATLSCRTSQNVNSNYLAWYQHKPGQAPRLLIYGASSRVTGIPDRFSGSGSGTDFTLTITRVESEDFAVYYCQVYSSSPPITFGQGTKVEIK	0.11 µg/mL	0.169 µg/mL	225 pM	288 pM	–
ADI-18970 (antibody, V domains shown, full-length IgG from yeast; also called Antibody Number 318; Ab # 318) VH: QVQLQESGPRLVKPSQTLSLTCTVSGGSISSGDYYWSWIRQPPGKGLEWIGYIYYSGSTHYNPSLKSRVSMSVDTAKNQFSLKLTSVTAADTAVYYCARDIGYGDHGTGSYYYGIEDWGQGTTVTVSS VL: DIVMTQTPATLSLSPGDRATLSCRASQNIMSYLAWYQHKPGQPPRLLIYDASYRAAGIPARFSGSGSGTDFTLTISSLEPEDFAVYYCQQRTNWITFGQGTRLEIK	> 10 µg/mL	0.333 µg/mL	412 pM	445 pM	–
ADI-18951 (antibody, V domains shown, full-length IgG from yeast) VH: QVQLVQSGGGLVQPGGSLRLSCAASGFAFSDYTMSWVRQAPGKGLEWVSSVSGTGGTSYYADSVNGRFAISRENSKNTLFLQMDSLRAEDTATYYCAKDGLRDVSRVYYIDVWGKGTTVTVSS VL: QPVLTQPASVSGSPGQSITISCTGTSRDIGSHDSVSWYQQKPGKAPKLIIYAVRNRPSGLSNRFSGSKSGNTASLTISGLQTEDEGDYYCSSYRNGNALGVFGTGTKVTVL	3.4 µg/mL	> 10 µg/mL	1130 pM	5350 pM	–
ADI-18952 (antibody, V domains shown, full-length IgG from yeast) VH: QVQLVESGGGLVQPGGSLRLSCAASGFAFSNYAMSWVRQAPGKGLEWVSSVSGTGGTTYYADSVNGRFAISRENSRNTLYLQMDSLRVEDTATYYCAKDGLRDLSRVYYIDVWGKGATVTVSS VL: QSVLTQPASVSGSPGQSITISCTGTSRDIGSHDYVSWYQQHPGKAPKLIIYGVNNRPSGLSNRFSGSKSGNTASLTISGLQTEDEGDYYCSSYRNGNTLGVFGTGTKLTVL	1.59 µg/mL	2.75 µg/mL	633 pM	1010 pM	–
ADI-18895 (antibody, V domains shown, full-length IgG from yeast; also called Antibody Number 250; Ab # 250) VH: QVQLVQSGPEVKKTRESLKIYCKGSGYSFISHWIGWVRQKPGKGLEWMGIIYPGDSDTRYSPSFQGQVAISADKSINTAYLQWSSLKSSDTAIYYCASVMLRGIMWGQGTLVTVSS VL: DIRLTQSPSSLSASVGDRVTITCQASQDISKYLNWYQQKPGKAPKLLIYDASNLETGVPSRFSGSGSGTDFTFTISSLQPEDIATYYCQPYDNLPPPLTFGGGTKLEIK	2.3 µg/mL	> 10 µg/mL	486 pM	–	2370 pM
ADI-18933 (antibody, V domains shown, full-length IgG from yeast) VH: QVQLVESGAEVKKPGASVKVACTASGYAFTNYNIHWVRLAPGQGLEWMAIINPGSGGTDYSEKFQGRLTLTSDTSTSTVYMTLGSLRYEDTAFYYCARRGYPDSGSYPLDYWGQGTLVTVSS VL: DIVMTQSPSSLSASLGDRVTITCRAGRSIATYLNWYQQKPGKAPKLLIYGASSLQSGVPSRFSGSGSGTHFTLTISSLQPEDFATYYCQQSYIRPITFGGGTKVEIK	0.075 µg/mL	0.137 µg/mL	616 pM	–	20000 pM
ADI-18878 (antibody, V domains shown, full-length IgG from yeast; also called Antibody Number 235; Ab # 235) VH: QVQLQESGPRLVKPSQTLSLICDVSGGSIGSGDHYWSWIRQPPGKGLEWIGYIYYSGTTYYNPSLKSRVTISADTSKNQLSLKLSSVTAADTAIYFCARDGGYDHVWGTHRYFDKWGQGTLVTVSS VL: EIVLTQSPGTLSLSPGERATLSCRASQSVSNSYLAWYQQKPGQAPRLLIYGVSTRATGIPDRFSGSGSGTDFTLTISRLEPEDFAMYHCQQYGASPWTFGQGTKVDIK	> 10 µg/mL	8.31 µg/mL	388 pM	5820 pM	–
ADI-18897 (antibody, V domains shown, full-length IgG from yeast) VH: EVQLVESGGGLVQPGGSLRLSCAASGFTIGTYWMSWVRQAPGKGLEWVANIKPDGSEQYYGDSVKGRFTISRDNAKNSLYLQMHSLRAEDAAVFYCARDTPDVLRHLEWPPVGAFDIWGQGTTVTVSS VL: EIVMTQSPDSLAVSLGERATINCKSSQSLFYSSTNQHYLAWYQQKPGQPPELLIYWASIRESGVPDRFSGSGSGTDFTLTISSLQAADVAVYYCQQYYSSPQTFGQGTKVEIK	0.288 µg/mL	0.762 µg/mL	185 pM	1530 pM	–
ADI-18918 (antibody, V domains shown, full-length IgG from yeast) VH: QVQLVQSGAEVKKPGESLKISCKGSGYSFSSFWIGWVRQMPGKGLEWMGIIYPGDSDTRYSPSFQGQVTMSADTSINTAYLQWNSVKASDTAIYYCARLPVGSYYYFNLWGRGTLVTVSS VL: EIVMTQSPATLSVSPGESATLFCRASQSISSDLAWYQQRPGQAPRLLIYDASTRATGVPARFSATGSEAEFTLTISGLQSEDFAVYYCQQYNNWLSWTFGQGTKLEIK	0.377 µg/mL	4.59 µg/mL	409 pM	–	567 pM
